Data: PMC4304843, “Human Mitochondrial Hsp70 (Mortalin): Shedding Light on ATPase Activity, Interaction with Adenosine Nucleotides, Solution Structure and Domain Organization” (PLoS ONE, 2015)

What was measured:
[1] = molecular target: Human Hsp70-1A, recombinant (human) (UniProt P0DMV8)
[2] = molecular target: Human mitochondrial Hsp70 (mortalin), recombinant (human) (UniProt P38646)
Chain of Human mitochondrial Hsp70 (mortalin), recombinant (human) (P38646 47-679): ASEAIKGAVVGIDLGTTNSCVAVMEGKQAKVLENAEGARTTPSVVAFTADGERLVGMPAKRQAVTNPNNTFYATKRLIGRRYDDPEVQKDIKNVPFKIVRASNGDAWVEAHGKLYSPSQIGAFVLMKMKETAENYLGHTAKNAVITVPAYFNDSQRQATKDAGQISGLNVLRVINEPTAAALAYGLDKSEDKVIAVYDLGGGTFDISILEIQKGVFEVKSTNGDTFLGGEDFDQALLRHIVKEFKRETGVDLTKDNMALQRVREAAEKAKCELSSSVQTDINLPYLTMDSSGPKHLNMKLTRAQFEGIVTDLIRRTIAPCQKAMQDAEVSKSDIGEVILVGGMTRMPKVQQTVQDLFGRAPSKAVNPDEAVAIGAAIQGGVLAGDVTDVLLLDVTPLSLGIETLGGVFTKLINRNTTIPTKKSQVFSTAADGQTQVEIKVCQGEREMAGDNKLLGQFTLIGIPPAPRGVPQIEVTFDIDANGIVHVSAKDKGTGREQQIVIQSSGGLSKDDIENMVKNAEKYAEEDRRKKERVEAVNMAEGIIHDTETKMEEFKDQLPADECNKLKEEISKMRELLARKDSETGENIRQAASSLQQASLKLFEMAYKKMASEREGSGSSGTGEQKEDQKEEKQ

Chain of Human Hsp70-1A, recombinant (human) (P0DMV8 whole entry): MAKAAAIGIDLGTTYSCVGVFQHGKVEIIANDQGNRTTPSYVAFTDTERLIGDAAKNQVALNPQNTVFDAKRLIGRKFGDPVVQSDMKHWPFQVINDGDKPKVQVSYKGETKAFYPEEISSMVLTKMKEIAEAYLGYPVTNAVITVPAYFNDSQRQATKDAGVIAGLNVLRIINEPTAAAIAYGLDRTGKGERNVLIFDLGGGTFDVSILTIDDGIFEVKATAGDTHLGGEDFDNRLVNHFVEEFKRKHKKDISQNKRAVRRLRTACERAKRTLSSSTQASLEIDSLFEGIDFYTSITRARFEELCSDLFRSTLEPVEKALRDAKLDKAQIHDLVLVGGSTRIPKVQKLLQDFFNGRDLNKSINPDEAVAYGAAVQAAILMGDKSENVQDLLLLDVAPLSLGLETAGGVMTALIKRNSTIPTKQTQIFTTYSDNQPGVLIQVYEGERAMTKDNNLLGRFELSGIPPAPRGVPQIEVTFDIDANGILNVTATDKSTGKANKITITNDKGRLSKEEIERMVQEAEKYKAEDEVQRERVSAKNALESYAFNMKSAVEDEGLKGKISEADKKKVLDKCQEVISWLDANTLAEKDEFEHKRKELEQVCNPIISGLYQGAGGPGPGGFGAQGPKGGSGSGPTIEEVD

B1: NR peptide (NRLLLTGY) (peptide)
peptide: NRLLLTGY
[1]
  EC50 of the stimulation of the basal ATPase activity of Hsp70-1A by NR peptide titration (1 mmol/L ATP, 37°C): 170 µM
  relative stimulation of the basal ATPase activity of Hsp70-1A at increasing NR peptide concentrations; maximum reached at 500 μmol/L NR peptide: 15%
[2]
  EC50 of the stimulation of the basal ATPase activity of mortalin by NR peptide titration (1 mmol/L ATP, 37°C): 7 µM
  relative stimulation of the basal ATPase activity of mortalin at increasing NR peptide concentrations; maximum reached at 100 μmol/L NR peptide: 25%
